From publication doi:10.1101/2022.12.04.519021
Values joined by “and” are separate entries in the source; they are usually repeats but may differ in a detail not shown here. Equal entries are not always repeated. Where two headings read alike, the source gives them in different places.

Legend:
[1] = target: C-terminally truncated amyloid-beta fragment Aβ1-25 (human); experiment: SDS-PAGE and immunoblot
[2] = target: C-terminally truncated amyloid-beta fragment Aβ1-25 (human); experiment: SDS-PAGE and immunoblot; remark: listed apart in the source
[3] = target: C-terminally amidated amyloid-beta fragment Aβ1-24-NH2 (human); experiment: SDS-PAGE and immunoblot
[4] = target: C-terminally amidated amyloid-beta fragment Aβ1-24-NH2 (human); experiment: high-resolution LC-MS
[5] = target: C-terminally truncated amyloid-beta fragment Aβ1-23 (human); experiment: SDS-PAGE and immunoblot

## C-terminally truncated amyloid-beta fragment Aβ1-25 (peptide)
[1]
  stoichiometry N: 3
[2]
  stoichiometry N: 2

## C-terminally amidated amyloid-beta fragment Aβ1-24-NH2 (peptide)
[3]
  stoichiometry N: 2 and 3
[4]
  stoichiometry N: 3 and 2 and 5

## C-terminally truncated amyloid-beta fragment Aβ1-23 (peptide)
[5]
  stoichiometry N: 3 and 2
